Paper PMC7993378, “Inhibition of bacterial and human zinc-metalloproteases by bisphosphonate- and catechol-containing compounds” (Journal of Enzyme Inhibition and Medicinal Chemistry, 2021)

Test system: COc1ccc2c(CC(=O)N[C@@H](CCCNC(=N)N)C(=O)N3CCC[C@H]3C(=O)N3CCC[C@H]3C(=O)NCC(=O)N[C@@H](Cc3ccccc3)C(=O)N[C@@H](CO)C(=O)N[C@@H](C)C(=O)N[C@@H](Cc3ccccc3)C(=O)N[C@@H](CCCCNc3ccc([N+](=O)[O-])cc3[N+](=O)[O-])C(=O)O)cc(=O)oc2c1
Test: Km determination of McaRPPGFSAFK(Dnp)-OH with TLN
Format: biochemical, Bacillus thermoproteolyticus
Details: other: 2% DMSO; pH 7.5
Procedure: The estimated Km values for ALN and PLN must be regarded as uncertain since the highest substrate concentration used was 10 µM due to quenching. The obtained Km values are very similar to those previously obtained for theses enzymes without DMSO[57] or with a DMSO concentration of 5%[58]. Previously it was reported that TLN is inactivated in most organic cosolvents, but can tolerate up to 10% DMSO to enhance substrate solubility. For TLN, the Km value was also determined with a DMSO concentration of 2%.
Km values were determined for McaPLGL(Dpa)AR-NH2 with APMA-activated recombinant MMP-9 (rMMP-9(A)), trypsin-activated MMP-9 from THP-1 cells (MMP-9(T)) and MMP-14, and for McaRPPGFSAFK(Dnp)-OH with ALN, PLN and TLN. Substrate concentrations used were 1–10 µM in a total volume of 100 µL of 0.1 M Hepes pH 7.5 containing 10 mM CaCl2, 0.005% Brij-35 and 1.0% DMSO. […] Initial rate experiments were performed as described above for the determination of enzyme activity of MMP-9 during activation and the same excitation and emission wavelengths were used for both substrates.

Substance: TLN (Bacillus thermoproteolyticus)
- Km: 7 ± 1 µM
